Assay results reported in PMC3578163 (Chemical research in toxicology, 2013).
Where two headings read alike, the source gives them in different places.

What was measured:
Assay in all cases: fluorescence polarization
[1] = target: T1, DNA polymerase iota catalytic core (hpol ι26-446) (Homo sapiens, UniProt Q9UNA4 26-446)
T1 sequence: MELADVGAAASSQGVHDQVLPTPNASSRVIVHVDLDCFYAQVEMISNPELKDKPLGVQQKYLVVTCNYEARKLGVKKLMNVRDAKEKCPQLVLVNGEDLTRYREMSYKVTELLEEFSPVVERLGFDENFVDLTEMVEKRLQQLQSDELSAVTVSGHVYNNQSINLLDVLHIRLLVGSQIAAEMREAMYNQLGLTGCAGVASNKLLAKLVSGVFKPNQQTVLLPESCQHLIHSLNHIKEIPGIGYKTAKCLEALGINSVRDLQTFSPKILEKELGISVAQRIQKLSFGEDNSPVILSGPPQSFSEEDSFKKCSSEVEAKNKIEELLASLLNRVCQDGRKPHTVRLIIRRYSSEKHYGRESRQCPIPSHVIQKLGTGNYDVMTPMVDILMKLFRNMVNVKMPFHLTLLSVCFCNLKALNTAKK

[2] = target: T2, DNA polymerase kappa catalytic core (hpol κ19-526) (Homo sapiens, UniProt Q9UBT6 19-526)
T2 sequence: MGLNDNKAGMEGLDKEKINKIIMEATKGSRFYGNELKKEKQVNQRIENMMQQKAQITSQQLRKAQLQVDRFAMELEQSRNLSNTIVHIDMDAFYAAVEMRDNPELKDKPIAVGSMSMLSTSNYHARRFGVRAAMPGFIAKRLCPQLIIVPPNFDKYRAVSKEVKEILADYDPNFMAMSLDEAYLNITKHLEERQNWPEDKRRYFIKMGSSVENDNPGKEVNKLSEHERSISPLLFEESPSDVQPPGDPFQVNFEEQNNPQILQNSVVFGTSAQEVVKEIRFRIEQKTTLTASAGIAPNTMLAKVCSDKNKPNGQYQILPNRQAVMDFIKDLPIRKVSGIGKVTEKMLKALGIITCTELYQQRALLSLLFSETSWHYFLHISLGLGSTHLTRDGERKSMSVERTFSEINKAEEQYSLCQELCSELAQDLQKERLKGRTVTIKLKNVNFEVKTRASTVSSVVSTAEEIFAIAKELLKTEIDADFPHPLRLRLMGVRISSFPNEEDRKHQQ

[3] = target: T1, DNA polymerase iota catalytic core …; remark: listed apart in the source
[4] = target: T2, DNA polymerase kappa catalytic core …; remark: listed apart in the source
[5] = target: T1, DNA polymerase iota catalytic core …; remark: listed apart in the source
[6] = target: T1, DNA polymerase iota catalytic core …; remark: listed apart in the source
[7] = target: T2, DNA polymerase kappa catalytic core …; remark: listed apart in the source
[8] = target: T1, DNA polymerase iota catalytic core …; remark: listed apart in the source

B1: FAM-13/18mer primer-template DNA (dsDNA)
DNA 1: TTTGGGGGAAGGATTC
DNA 2: TCACGGAATCCTTCCCCC
B1 showed a Kd [1] of 8.8 ± 1.3 nM, a Kd [2] of 13.7 ± 5.1 nM and a Kd [3] of 5.5 ± 0.7 nM. It also gave a Kd [4] of 19 ± 5.6 nM, a Kd [5] of 6.3 ± 0.9 nM and a Kd [6] of 9.1 ± 1.6 nM. The Kd [7] was 11.1 ± 5.1 nM and the Kd [8] was 5.3 ± 0.7 nM.
